Laboratory results published in publication doi:10.1101/467571.

T1: rDorsal-RHD (Litopenaeus vannamei, UniProt D2E9Y3 74-253)
T1 sequence: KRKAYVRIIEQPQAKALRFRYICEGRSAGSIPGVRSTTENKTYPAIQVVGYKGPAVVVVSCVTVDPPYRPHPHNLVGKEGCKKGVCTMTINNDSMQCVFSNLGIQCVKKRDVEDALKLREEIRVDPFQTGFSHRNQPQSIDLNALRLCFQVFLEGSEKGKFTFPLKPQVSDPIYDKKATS


How the values were obtained:
rDorsal-RHD [1] = target: T1, rDorsal-RHD; assay: EMSA
rTrx = rTrx (UniProt P0AA25 1-109); assay: EMSA
rDorsal-RHD [2] = target: T1, rDorsal-RHD; assay: competition

Chain of rTrx (P0AA25 whole entry): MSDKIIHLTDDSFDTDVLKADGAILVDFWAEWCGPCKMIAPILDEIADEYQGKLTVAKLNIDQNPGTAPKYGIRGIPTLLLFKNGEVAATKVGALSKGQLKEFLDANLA

| Binder | binding result (rDorsal-RHD [1]) | binding result (rTrx) | binding result (rDorsal-RHD [2]) |
| --- | --- | --- | --- |
| Mut-bio-probe 1 (dsDNA) DNA 1: TCTGTGTGTGTGTCCTTTACGGAGAAAACATTATCAGA DNA 2: TCTGATAATGTTTTCTCCGTAAAGGACACACACACAGA | no binding | – | – |
| probe 1 (BigPEN kB1) (dsDNA) DNA 1: TCTGTGTGTGTGTCCTTTAGTGTTTTTCGCCGGAGAAAACATTATCAGAC DNA 2: GTCTGATAATGTTTTCTCCGGCGAAAAACACTAAAGGACACACACACAGA | binds | no binding | – |
| unlabeled probe 1 (dsDNA) DNA 1: TCTGTGTGTGTGTCCTTTAGTGTTTTTCGCCGGAGAAAACATTATCAGAC DNA 2: GTCTGATAATGTTTTCTCCGGCGAAAAACACTAAAGGACACACACACAGA | – | – | binds |
